Test results reported in the supplement of paper PMC7877785.
± gives the uncertainty stated by the source.

Experiment: self-splicing fitness, log relative to wild type (ln ratio); higher = more splicing; Tetrahymena group I intron in knt gene, E. coli kanamycin selection, DiMSum; sequences stand for … in CUCUCU…GGAGGGAAAAGUUAUCAGGCAUGCACCUGGUAGCUAGUCUUUAAACCAAUAGAUUGCAUCGGUUUAAAAGGCAAGACCGUCAAAUUGCGGGAAAGGGGUCAACAGCCGUUCAGUACCAAGUCUCAGGGGAAACUUUGAGAUGGCCUUGCAAAGGGUAUGGUAAUAAGCUGACGGACAUGGUCCUAACCACGCAGCCAAGUCCUAAGUCAACAGAUCUUCUGUUGAUAUGGAUGCAGUUCACAGACUAAAUGUCGGUCGGGGAAGAUGUAUUCUUCUCAUAAGAUAUAGUCGGACCUCUCCUUAAUGGGAGCUAGCGGAUGAAGUGAUGCAACACUGGAGCCGCUGGGAACUAAUUUGUAUGCGAAAGUAUAUUGAUUAGUUUUGGAGUACUCGUGGUCG
Outline: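 Library with all eight P1ex-region intron nucleotides randomised, intron inside the knt kanamycin-resistance gene on pET-22b(+), in E. coli BL21(DE3). Cells grew overnight at 37°C or 30°C on LB agar with or without 25 μg/mL kanamycin (plus 100 μg/mL carbenicillin, 50 μM IPTG, 0.2% rhamnose), in six replicate transformations. Pooled colonies were amplicon-sequenced on Illumina HiSeq 2500. DiMSum fitness is the error-weighted combination of wild-type-normalised replicate fold changes, kanamycin versus none.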

Row | Sequence | self-splicing fitness (ln) (30 °C) | self-splicing fitness (ln) (37 °C)
1 | UGAAAGCAAUAUUACGUGAA | -1.3 ± 0.07 | -1.5 ± 0.085
2 | UGAAAGCAAUAUUACGUUGC | -3.54 ± 0.19 | -2.58 ± 0.21
3 | UGAAAGCAAUAUUACGUUGU | -4.1 ± 0.22 | -2.04 ± 0.12
4 | UGACAGCAAUAUUACGACCG | 0.701 ± 0.16 | 0.698 ± 0.19
5 | UGACAGCAAUAUUACGAGGU | -3.28 ± 0.15 | -2.65 ± 0.21
6 | UGACAGCAAUAUUACGAUCU | -0.412 ± 0.07 | 0.277 ± 0.082
7 | UGACAGCAAUAUUACGCAGA | -1.96 ± 0.15 | -1.11 ± 0.13
8 | UGACAGCAAUAUUACGCAUA | -0.976 ± 0.07 | 0.0999 ± 0.082
9 | UGACAGCAAUAUUACGCCAA | -1.51 ± 0.14 | -0.461 ± 0.12
10 | UGACAGCAAUAUUACGCGGG | -2.59 ± 0.17 | -1.24 ± 0.14
11 | UGACAGCAAUAUUACGCGUC | -4.67 ± 0.38 | -3.62 ± 0.27
12 | UGACAGCAAUAUUACGGAGU | -4.14 ± 0.2 | -2.79 ± 0.13
13 | UGACAGCAAUAUUACGGGAC | -4.05 ± 0.31 | -2.31 ± 0.22
14 | UGACAGCAAUAUUACGUCUC | -4.29 ± 0.34 | -1.47 ± 0.22
15 | UGACAGCAAUAUUACGUGCA | -1.06 ± 0.079 | 0.394 ± 0.11
16 | UGACAGCAAUAUUACGUGCU | -4.32 ± 0.24 | -1.04 ± 0.11
17 | UGACAGCAAUAUUACGUUCA | -0.939 ± 0.076 | 0.0202 ± 0.08
18 | UGACAGCAAUAUUACGUUGG | -2.08 ± 0.12 | -1.82 ± 0.13
19 | UGAGAGCAAUAUUACGAAGU | -3.04 ± 0.26 | -2.55 ± 0.31
20 | UGAGAGCAAUAUUACGACAG | -4.41 ± 0.39 | -3.07 ± 0.34
21 | UGAGAGCAAUAUUACGAGCA |  | 0.211 ± 0.27
22 | UGAGAGCAAUAUUACGAUAU |  | -2.8 ± 0.44
23 | UGAGAGCAAUAUUACGAUCG | -2.1 ± 0.13 | -2.12 ± 0.17
24 | UGAGAGCAAUAUUACGCAUU | -3.34 ± 0.38 | 
25 | UGAGAGCAAUAUUACGCCAA |  | -1.98 ± 0.37
26 | UGAGAGCAAUAUUACGCCGG | -3.37 ± 0.47 | 

Row | Sequence | self-splicing fitness (ln) (30 °C) | self-splicing fitness (ln) (37 °C)
27 | UGAGAGCAAUAUUACGCCUA | -1.58 ± 0.22 | -0.073 ± 0.21
28 | UGAGAGCAAUAUUACGCCUG | -2.46 ± 0.21 | -1.91 ± 0.32
29 | UGAGAGCAAUAUUACGCGCG | -2.15 ± 0.2 | -1.23 ± 0.24
30 | UGAGAGCAAUAUUACGCGGC | -3.04 ± 0.46 | -1.58 ± 0.44
31 | UGAGAGCAAUAUUACGCUAG | -3.66 ± 0.47 | 
32 | UGAGAGCAAUAUUACGCUAU | -3.09 ± 0.35 | -1.48 ± 0.46
33 | UGAGAGCAAUAUUACGGCCG | -3.57 ± 0.43 | -1.38 ± 0.25
34 | UGAGAGCAAUAUUACGGCGG | -3.73 ± 0.35 | -1.9 ± 0.3
35 | UGAGAGCAAUAUUACGGUAA | -4.27 ± 0.25 | -2.27 ± 0.23
36 | UGAGAGCAAUAUUACGGUAC |  | -2 ± 0.38
37 | UGAGAGCAAUAUUACGGUAU | -3.07 ± 0.2 | -1.53 ± 0.3
38 | UGAGAGCAAUAUUACGUACA | -2.02 ± 0.21 | -0.955 ± 0.26
39 | UGAGAGCAAUAUUACGUCUA | -1.4 ± 0.11 | -0.679 ± 0.12
40 | UGAUAGCAAUAUUACGAAUG | -1.19 ± 0.12 | -1.14 ± 0.16
41 | UGAUAGCAAUAUUACGACCG | 0.139 ± 0.13 | 0.451 ± 0.17
42 | UGAUAGCAAUAUUACGACCU | -1.09 ± 0.17 | -0.0258 ± 0.18
43 | UGAUAGCAAUAUUACGAGAC |  | -2.59 ± 0.34
44 | UGAUAGCAAUAUUACGAGUA | -1.71 ± 0.16 | -1.23 ± 0.13
45 | UGAUAGCAAUAUUACGAUCG | -0.236 ± 0.14 | -0.942 ± 0.15
46 | UGAUAGCAAUAUUACGAUUA | -0.749 ± 0.11 | -0.000856 ± 0.1
47 | UGAUAGCAAUAUUACGCCCA | 0.955 ± 0.13 | -0.0259 ± 0.17
48 | UGAUAGCAAUAUUACGCGCG | -0.57 ± 0.086 | -0.283 ± 0.12
49 | UGAUAGCAAUAUUACGCGGU | -3.34 ± 0.27 | -1.99 ± 0.22
50 | UGAUAGCAAUAUUACGCUGA | -1.79 ± 0.2 | -0.53 ± 0.12
51 | UGAUAGCAAUAUUACGGCAU | -2.68 ± 0.13 | -1.41 ± 0.13
52 | UGAUAGCAAUAUUACGGCGG | -0.138 ± 0.095 | -0.142 ± 0.13

Row | Sequence | self-splicing fitness (ln) (30 °C) | self-splicing fitness (ln) (37 °C)
53 | UGAUAGCAAUAUUACGGUGC | -2.98 ± 0.35 | 
54 | UGAUAGCAAUAUUACGUAGG | -1.66 ± 0.16 | -0.583 ± 0.16
55 | UGAUAGCAAUAUUACGUAUC | -2.67 ± 0.48 | 
56 | UGAUAGCAAUAUUACGUCGA | -1.69 ± 0.11 | -0.847 ± 0.1
57 | UGAUAGCAAUAUUACGUCUG | -0.116 ± 0.085 | 0.318 ± 0.1
58 | UGAUAGCAAUAUUACGUGUG | -1.45 ± 0.1 | -0.804 ± 0.098
59 | UGAUAGCAAUAUUACGUUUC | -2.72 ± 0.22 | -2.29 ± 0.41
60 | UGCAAGCAAUAUUACGAAUG | -1.35 ± 0.085 | -0.724 ± 0.12
61 | UGCAAGCAAUAUUACGACUG | 0.127 ± 0.065 | 0.37 ± 0.087
62 | UGCAAGCAAUAUUACGAUGG | -1.25 ± 0.1 | -0.29 ± 0.12
63 | UGCAAGCAAUAUUACGCAAA | -2.5 ± 0.17 | -2 ± 0.15
64 | UGCAAGCAAUAUUACGCAUC | -1.87 ± 0.45 | -1.52 ± 0.45
65 | UGCAAGCAAUAUUACGCUAG | -2.55 ± 0.27 | -2.42 ± 0.33
66 | UGCAAGCAAUAUUACGCUCG | -3.78 ± 0.27 | -1.83 ± 0.2
67 | UGCAAGCAAUAUUACGGAAC |  | -0.851 ± 0.25
68 | UGCAAGCAAUAUUACGGGAG | -2.41 ± 0.096 | -1.71 ± 0.098
69 | UGCAAGCAAUAUUACGGUAU | -3.81 ± 0.21 | -1.15 ± 0.14
70 | UGCAAGCAAUAUUACGGUUA | 0.147 ± 0.075 | 0.11 ± 0.078
71 | UGCAAGCAAUAUUACGUAUA | -2.49 ± 0.18 | -0.379 ± 0.12
72 | UGCAAGCAAUAUUACGUCCG | 0.463 ± 0.1 | 0.55 ± 0.12
73 | UGCAAGCAAUAUUACGUGGA | -2.88 ± 0.17 | -1.36 ± 0.11
74 | UGCAAGCAAUAUUACGUGGU | -4.13 ± 0.17 | -2.84 ± 0.16
75 | UGCAAGCAAUAUUACGUUCA | 0.123 ± 0.06 | 0.454 ± 0.088
76 | UGCAAGCAAUAUUACGUUCU | -0.995 ± 0.069 | -0.423 ± 0.084
77 | UGCCAGCAAUAUUACGAAUA | -2.53 ± 0.16 | -0.828 ± 0.12
78 | UGCCAGCAAUAUUACGACAA | -1.19 ± 0.17 | 0.212 ± 0.13
